From the supplement of paper PMC11316812
± gives the standard deviation of the averaged measurements.

What was measured:
MCF7 = test: percentage of EdU-negative (G0-arrested) nuclei per well, 72 h; higher = more G0 arrest; conditions: reference: sequence is the full UniProt precursor, the tested protein was the secreted form or ectodomain
hTERT-HMEC = test: as above; conditions: reference: sequence is the full UniProt precursor, the tested protein was the secreted form or ectodomain
[1] = protein concentration 0.0126825 µM
[2] = protein concentration 0.126825 µM
[3] = protein concentration 0.0225 µM
[4] = protein concentration 0.01625 µM
[5] = protein concentration 0.1625 µM
[6] = protein concentration 0.01425 µM
[7] = protein concentration 0.1425 µM
[8] = protein concentration 0.026505 µM
[9] = protein concentration 0.26505 µM
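Also: secreted proteins added to cultured cells, EdU pulse at the end, nuclei found by Hoechst imaging, EdU status from nuclear versus surrounding ring intensity ratio, PBS as neutral control.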

“MQVSKRMLAGGVRSMPSPLLACWQPILLLVLGSVLSGSATGCPPRCECSAQDRAVLCHRKRFVAVPEGIPTETRLLDLGKNRIKTLNQDEFASFPHLEELELNENIVSAVEPGAFNNLFNLRTLGLRSNRLKLIPLGVFTGLSNLTKLDISENKIVILLDYMFQDLYNLKSLEVGDNDLVYISHRAFSGLNSLEQLTLEKCNLTSIPTEALSHLHGLIVLRLRHLNINAIRDYSFKRLYRLKVLEISHWPYLDTMTPNCLYGLNLTSLSITHCNLTAVPYLAVRHLVYLRFLNLSYNPISTIEGSMLHELLRLQEIQLVGGQLAVVEPYAFRGLNYLRVLNVSGNQLTTLEESVFHSVGNLETLILDSNPLACDCRLLWVFRRRWRLNFNRQQPTCATPEFVQGKEFKDFPDVLLPNYFTCRRARIRDRKAQQVFVDEGHTVQFVCRADGDPPPAILWLSPRKHLVSAKSNGRLTVFPDGTLEVRYAQVQDNGTYLCIAANAGGNDSMPAHLHVRSYSPDWPHQPNKTFAFISNQPGEGEANSTRATVPFPFDIKTLIIATTMGFISFLGVVLFCLVLLFLWSRGKGNTKHNIEIEYVPRKSDAGISSADAPRKFNMKMI [Q96FE5]” was tested, and the “percentage of EdU-negative” value (MCF7; [1]) was 23.8 ± 3%, the “percentage of EdU-negative” value (MCF7; [2]) was 28.9 ± 0.74% and the “percentage of EdU-negative” value (hTERT-HMEC; [1]) was 4.72 ± 0.26%. The “percentage of EdU-negative” value (hTERT-HMEC; [2]) was 4.37 ± 0.16%.

In the case of “MWVLGIAATFCGLFLLPGFALQIQCYQCEEFQLNNDCSSPEFIVNCTVNVQDMCQKEVMEQSAGIMYRKSCASSAACLIASAGYQSFCSPGKLNSVCISCCNTPLCNGPRPKKRGSSASALRPGLRTTILFLKLALFSAHC [Q8N2G4]”, the “percentage of EdU-negative” value (MCF7; [3]) is reported as 25.13 ± 0.22%, the “percentage of EdU-negative” value (MCF7; protein concentration 0.225 µM) is reported as 25.1 ± 1.1% and the “percentage of EdU-negative” value (hTERT-HMEC; [3]) is reported as 5.36 ± 1.2%. For the same sequence, the “percentage of EdU-negative” value (hTERT-HMEC; protein concentration 0.225 µM) was 4.964 ± 0.041%.

“MSNTQAERSIIGMIDMFHKYTRRDDKIEKPSLLTMMKENFPNFLSACDKKGTNYLADVFEKKDKNEDKKIDFSEFLSLLGDIATDYHKQSHGAAPCSGGSQ” was tested, and the “percentage of EdU-negative” value (MCF7; [3]) was 23.5 ± 2.3%, the “percentage of EdU-negative” value (MCF7; protein concentration 0.225 µM) was 26.5 ± 2.3% and the “percentage of EdU-negative” value (hTERT-HMEC; [3]) was 5.43 ± 0.67%. The “percentage of EdU-negative” value (hTERT-HMEC; protein concentration 0.225 µM) was 5.53 ± 0.45%.

With “MKLALLLPWACCCLCGSALATGFLYPFSAAALQQHGYPEPGAGSPGSGYASRRHWCHHTVTRTVSCQVQNGSETVVQRVYQSCRWPGPCANLVSYRTLIRPTYRVSYRTVTVLEWRCCPGFTGSNCDEECMNCTRLSDMSERLTTLEAKVLLLEAAERPSSPDNDLPAPESTPPTWNEDFLPDAIPLAHPVPRQRRPTGPAGPPGQTGPPGPAGPPGSKGDRGQTGEKGPAGPPGLLGPPGPRGLPGEMGRPGPPGPPGPAGNPGPSPNSPQGALYSLQPPTDKDNGDSRLASAIVDTVLAGVPGPRGPPGPPGPPGPRGPPGPPGTPGSQGLAGERGTVGPSGEPGVKGEEGEKAATAEGEGVQQLREALKILAERVLILEHMIGIHDPLASPEGGSGQDAALRANLKMKRGGAQPDGVLAALLGPDPGQKSVDQASSRK [Q96A83]” the “percentage of EdU-negative” value (MCF7; [4]) was 26.9 ± 1.4%, the “percentage of EdU-negative” value (MCF7; [5]) was 25.1 ± 1.8% and the “percentage of EdU-negative” value (hTERT-HMEC; [4]) was 4.63 ± 0.36%. The “percentage of EdU-negative” value (hTERT-HMEC; [5]) was 7.44 ± 3.3%.

For “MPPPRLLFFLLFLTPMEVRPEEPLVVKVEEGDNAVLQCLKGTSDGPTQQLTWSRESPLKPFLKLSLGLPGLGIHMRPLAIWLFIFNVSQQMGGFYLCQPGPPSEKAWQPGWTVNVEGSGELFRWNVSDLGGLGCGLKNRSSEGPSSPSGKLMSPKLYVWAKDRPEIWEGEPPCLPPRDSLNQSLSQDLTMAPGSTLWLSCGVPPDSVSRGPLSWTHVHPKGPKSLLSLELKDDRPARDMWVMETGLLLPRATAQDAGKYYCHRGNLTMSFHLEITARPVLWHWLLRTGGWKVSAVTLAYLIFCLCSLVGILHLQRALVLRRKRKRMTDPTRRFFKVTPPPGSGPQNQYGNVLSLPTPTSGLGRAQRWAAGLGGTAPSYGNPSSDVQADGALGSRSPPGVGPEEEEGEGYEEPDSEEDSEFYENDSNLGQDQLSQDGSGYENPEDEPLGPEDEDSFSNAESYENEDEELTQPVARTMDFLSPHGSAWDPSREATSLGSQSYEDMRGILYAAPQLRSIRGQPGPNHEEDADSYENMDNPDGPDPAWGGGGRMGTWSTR”, the “percentage of EdU-negative” value (MCF7; [6]) was 25.2 ± 1.1%, the “percentage of EdU-negative” value (MCF7; [7]) was 26.2 ± 0.68% and the “percentage of EdU-negative” value (hTERT-HMEC; [6]) was 5.66 ± 0.95%. The “percentage of EdU-negative” value (hTERT-HMEC; [7]) was 8.73 ± 0.49%.

With “MKSLVLLLCLAQLWGCHSAPHGPGLIYRQPNCDDPETEEAALVAIDYINQNLPWGYKHTLNQIDEVKVWPQQPSGELFEIEIDTLETTCHVLDPTPVARCSVRQLKEHAVEGDCDFQLLKLDGKFSVVYAKCDSSPDSAEDVRKVCQDCPLLAPLNDTRVVHAAKAALAAFNAQNNGSNFQLEEISRAQLVPLPPSTYVEFTVSGTDCVAKEATEAAKCNLLAEKQYGFCKATLSEKLGGAEVAVTCMVFQTQPVSSQPQPEGANEAVPTPVVDPDAPPSPPLGAPGLPPAGSPPDSHVLLAAPPGHQLHRAHYDLRHTFMGVVSLGSPSGEVSHPRKTRTVVQPSVGAAAGPVVPPCPGRIRHFKV” the “percentage of EdU-negative” value (MCF7; [8]) was 26.1 ± 1.4%, the “percentage of EdU-negative” value (MCF7; [9]) was 26.2 ± 2.4% and the “percentage of EdU-negative” value (hTERT-HMEC; [8]) was 4.56 ± 0.2%. The “percentage of EdU-negative” value (hTERT-HMEC; [9]) was 6.7 ± 0.16%.
